Experimental data from publication PMC8882047.
Like-named read-outs stand apart in the source and are kept apart here.

Tests used:
[1] = molecular target: human plasmin (purified) (human); test: enzyme inhibition titration
[2] = molecular target: human plasmin (purified) (human); test: enzyme inhibition progress curves
[3] = molecular target: human plasmin (purified) (human); test: enzyme inhibition titration; remark: listed apart in the source

Molecule	stoichiometry of inhibition (SI) [1]	kon [2] [M⁻¹ s⁻¹]	stoichiometry of inhibition (SI) [3]
miropin (recombinant, tag-free) (from UniProt G8UQY8 1-432) (natural protein)	2.3	–	–
human α2-antiplasmin (natural protein) NQEQVSPLTLLKLGNQEPGGQTALKSPPGVCSRDPTPEQTHRLARAMMAFTADLFSLVAQTSTCPNLILSPLSVALALSHLALGAQNHTLQRLQQVLHAGSGPCLPHLLSRLCQDLGPGAFRLAARMYLQKGFPIKEDFLEQSEQLFGAKPVSLTGKQEDDLANINQWVKEATEGKIQEFLSGLPEDTVLLLLNAIHFQGFWRNKFDPSLTQRDSFHLDEQFTVPVEMMQARTYPLRWFLLEQPEIQVAHFPFKNNMSFVVLVPTHFEWNVSQVLANLSWDTLHPPLVWERPTKVRLPKLYLKHQMDLVATLSQLGLQELFQAPDLRGISEQSLVVSGVQHQSTLELSEVGVEAAAATSIAMSRMSLSSFSVNRPFLFFIFEDTTGLPLFVGSVRNPNPSAPRELKEQQDSPGNKDFLQSLKGFPRGDKLFGPDLKLVPPMEEDYPQFGSPK	–	1.3e+06	1.1
